One sequence from US20050239134 can be followed below.

This data set deals with TGF-beta-1 (TGF-β1 homodimer) (Homo sapiens?) (UniProt P01137). As to the kind of experiment: EMSA. The note with it: PS at dA and dC (5' of A and C; from dATP(αS)/dCTP(αS)); apparent; naive library control; room temp 30 min. (Mobility shift assays separate free from complexed probe on a gel.)
Chain of TGF-beta-1 (TGF-β1 homodimer) (Homo sapiens?) (P01137 279-390): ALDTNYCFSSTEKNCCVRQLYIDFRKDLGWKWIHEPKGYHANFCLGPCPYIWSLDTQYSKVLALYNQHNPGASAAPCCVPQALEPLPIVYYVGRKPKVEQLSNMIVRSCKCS

Turning to “CAGTCCGGATGCTCTAGAGTGACNNNNNNNNNNNNNNNNNNNNNNNNNNNNNNCGAATCTCGTGAAGCCGAGCG [initial 74-mer N30 thiophosphate ssDNA library]”, the Kd is 11 µM.
